These results are taken from patent EP3069729A1 (Sequoia Sciences, Inc., dated 2016).

The assay deals with T1, horseradish peroxidase (HRP) (UniProt P00433 31-338).
T1 sequence: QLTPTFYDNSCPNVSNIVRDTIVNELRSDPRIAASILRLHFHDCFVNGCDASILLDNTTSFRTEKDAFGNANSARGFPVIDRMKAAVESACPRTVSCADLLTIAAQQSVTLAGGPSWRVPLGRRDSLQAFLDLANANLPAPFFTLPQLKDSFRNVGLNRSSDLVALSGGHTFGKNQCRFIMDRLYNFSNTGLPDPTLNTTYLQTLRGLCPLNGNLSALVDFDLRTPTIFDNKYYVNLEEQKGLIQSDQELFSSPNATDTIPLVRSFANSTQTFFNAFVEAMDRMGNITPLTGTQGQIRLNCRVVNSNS
The experiment in a line: in vitro mannose binding potency assay; inferred from the Q133K FimCH complex.

B1: FimC (other)
chain: GVALGATRVIYPAGQKQVQLAVTNNDENSTYLIQSWVENADGVKDGRFIVTPPLFAMKGKKENTLRILDATNNQLPQDRESLFWMNVKAIPSMDKSKLTENTLQLAIISRIKLYYRPAKLALPPDQAAEKLRFRRSANSLTLINPTPYYLTVTELNAGTRVLENALVPPMGESAVKLPSDAGSNITYRTINDYGALTPKMTGVME
notes: also called FimC protein
As to B1, the binding result was “no binding”.
